# From the DeepSol protein solubility set
# Assay: soluble on expression in E. coli; label from the status in PepcDB or PDB records
row,Sequence,soluble on expression in E. coli
1,MESEGEAQMFADCDQKTVKQTAAKPMSSKKKQDFQALASDRQLAIVFSSMIQVSEAFDYGIGNPEYFVRISMTEEEADIAKENLESIKLENKSLKKQNSEAVALLQKTRNQDMSRIEIQQLTENRAGFFETADSMIKLINQVTPKNAKKTRQQLDQLKKQYTQYSAESIKIMNSIVKKQKADKASFERHLEALLQKQPGQQVRSELYLEHHHHHH,soluble
2,MDVRRLKVNELREELQRRGLDTRGLKAELAERLQAALEAEEPDDERELDADDEPGRPGHINEEVETEGGSELEGTAQPPPPGLQPHAEPGGYSGPDGHYAMDNITRQNQFYDTQVIKQENESGYERRPLEMEQQQAYRPEMKTEMKQGAPTSFLPPEASQLKPDRQQFQSRKRPYEENRGRGYFEHREDRRGRSPQPPAEEDEDDFDDTLVAIDTYNCDLHFKVARDRSSGYPLTIEGFAYLWSGARASYGVRRGRVCFEMKINEEISVKHLPSTEPDPHVVRIGWSLDSCSTQLGEEPFSYGYGGTGKKSTNSRFENYGDKFAENDVIGCFADFECGNDVELSFTKNGKWMGIAFRIQKEALGGQALYPHVLVKNCAVEFNFGQRAEPYCSVLPGFTFIQHLPLSERIRGTVGPKSKAECEILMMVGLPAAGKTTWAIKHAASNPSKKYNILGTNAIMDKMRVMGLRRQRNYAGRWDVLIQQATQCLNRLIQIAARKKRNYILDQTNVYGSAQRRKMRPFEGFQRKAIVICPTDEDLKDRTIKRTDEEGKDVPDHAVLEMKANFTLPDVGDFLDEVLFIELQREEADKLVRQYNEEGRKAGPPPEKRFDNRGGGGFRGRGGGGGFQRYENRGPPGGNRGGFQNRGGGSGGGGNYRGGFNRSGGGGYSQNRWGNNNRDNNNSNNRGSYNRAPQQQPPPQQPPPPQPPPQQPPPPPSYSPARNPPGASTYNKNSNIPGSSANTSTPTVSSYSPPQPSYSQPPYNQGGYSQGYTAPPPPPPPPPAYNYGSYGGYNPAPYTPPPPPTAQTYPQPSYNQYQQYAQQWNQYYQNQGQWPPYYGNYDYGSYSGNTQGGTSTQ,soluble
3,MAHHHHHHMMRLSRLGVTAAAAAPSSFPLLQQLRGVRYANIQETLKPIPGQTAGQISILNEICCNPDAEEERRKPVFRAEVMPDAAAAAEEDNYLHTMHKWGYDSLTLFKKTNEDPGPWWNANASTLASNWSQVGDYANAGMWSGVWRYTYGIGEYNLRPYELRGRAWGRKDPKTGAVMIRYGKRSTSKPVQRLCFPHTKEHEQHHRIKNPANKDVKEISALHGKRILRELQYHLGQGLRFYLVDGVFGSDPGTATPYRIITDTPTHAYFASMAAIRTFNYVARQEVTLVKRLSQSPIDEWGWRRPGVLIYHAPSYDFESPRIVEEFGGPRPKDMGLSHNRFIATEPYSIPMKCAMGGEPSCDALLDSTAMLCGRWGFYADEKGYLTVPGESIMSKDGRSLTLVITGDEADADALRTSPQLYGSRHHRIANGVVSRAWDVVSMPACATGAKPLPTDIVEQDLQRVQRSLPTRMGLPHTLSHRHHGRRHVSEYGFKWPHNYTEDVSTKAYAGGHLFKAPKTDKLAGHQPRPSRFLMKDVDVVVIGEGVDAAAAVVSTLKDRGMLYAEEAPLKEAMATALKAAKSVKVVPRASSKVVLGKLTHV,not soluble
4,MAIIRQRYQEQLDDLIKELRRLGANVYVSIENGIKSLSIDDRGFARQTVKNDKHINQLNYDINERVIMLITKQQPIASDLRMMISSLKIASDLERIGDNASSIANIRLRTKITDDYVLTRLKTMGKLAMLMLKDLDQAFKKKDTVLIREIIERDEDIDDLYSHIINATYLIDNDPFVAAQAHLAARHLERIGDHIINIAESVYFYLTGTHYEQ,not soluble
5,MYKLIDSAKFIMCVRSKRFRPDTLMDIFYLLNIQNMNCKKLFKTLLFIITTLVIVSCSKDDCDLDHIDKLQGLPALKAGTFPEEDLTLNVGEQYVYAPKASSPLDIYYQWYQNGEDMSTAPSFTFNAEHPGRSKVILELSNDLGKVTLENKVMVPGADYSKGCLIINEGWFGHGSGSISFYNYEKNSIEHWCYKNQNFGDVLGVTSQSATLWNGKLYVCSKEDNQLVVMDPKTLYAENSCGKLANYQAYEFIGLNDDYGIITHGGYFSRINLKTFETITLVSVGNTYTGTGSGIAYNGKLILNVNSSGWGSPKVYTIDIAELCSPDLKPTDKVAFQELDIATYGGTRFVQCKDGNIYTVETTKDGKNNLVRINADFSLKKVAMRDDYSPSSFGAYREASFCGTPEGIFYYIAGGKIYKATFDNPAPEETLTEYTKEGYGFYGAGIRVNPKTNELLAMYLTGDYQKNLLVRFNAATGEKISEIAYDGYYFPATFIFN,not soluble
6,GPGSMEGLSPPETDECAKPHNRECNTTPSSGSPPSNIPPQQLLCSVRSGMHSNLTESAWESRESNSGYAHEKQSGVDGDACTRYYQRLHRFYEQYNPKNLSRISEYLAAYKGKEEQLMAILVGKYGPEPVDRGPQTNLSCCSGDDSVMHFSGKRYRIPTVVTPQQGNTDCETPYWGNSPLIGERDILGLLSSLETANVELQKCYIGPSAQHPTSSWNGMTYVTRAEIFTPNEETFLGHKWTFTLGSKKVLVHEGSAYHRATFFCTDECQYRGRHERWRLCVYTSSVDSLYLVRVIWDPVVYLEPLPLDRSALSQHSSSEAMPIAGSSVSYQTSCGKGNTEPEQPLISATMINIMTMLENMDKKISGRFDALEARFSFLESKLLGAVDDKQRTEDR,not soluble
7,GPGSMLHIDFCIAADAQEALEESGKPNTATVAVPIILEKEVLKLLAPPVCSSDGGFEYDLNATRTLLGAKGATAAYIVVRTAPSTQYVVIYVSDTTSAKNRMLYSTGLSRVVEATPHAQKRTVRISSVSELLPSLFEAESKKVKEALMTESERHHAAIARMEVAPQPVALPGVAVQITTDADDGLSQFAGGAVEVATFKIEAGQLQLDKTVAQLNGNLDQVKSILTDADPRFVLLRYPSPKTQLAEAVMVYVCPPTCSPKIKIQYASSAAAFREQALRHKIQLAHKVETDTTATLADDVRSAFEPFPSADARKTHGRLSSCPPTSWAPKGHSMLI,soluble
8,MSLIDRTHELPLTQQCRILRLARSSMYYTPREVSAHDLALMRRMDELHLEHPFAGARMLRDLLRAEGHAIGRKHVGTLMRRMGIEALYRKPNTSRRRRGDEIYPYLLRDLKIERPNQAWAADITYIPMRKGFVYLFAIIDWSSRRVLAWRLSNTLTTDFCLDAVREALHRYGRPEIFNTDQGCQFTSTDFTDLLKDNGIQISMDGKGCWRDNVFVERLWKSVKYEEVYLKAYDSVAEAKAHLGAYLRFYNERRPHRAHDGRTPDQAYFGALRDETPLAAEGHHHHHH,not soluble
9,MAGQSKIIVGGVIGGTSEQEPKGFLDLPVELYQKIIGKLDLHERFRVRKSNQTLRQFIDQMDPAISQIRVSISDSDKCDDWVSRSVRVMAEMLSSSIYPDVKNISTCGLPSSQIAQILPSFQAGKLENLDLYYCGKPTAEDMETIVNSDQWKNAKNISGFRGLSNIRIKDLLHFSLVCVDYATISVETAIEIKDILLTSSNIKHAYFTSKSVLDVNVIRVFDPKAAKVHRKRNLSNLVRNTDFADFTFSSNQKVLRFKKKN,not soluble
10,MGSDKIHHHHHHMASKNFVLDTNVLIENPRCIAALRNGEENRIHVPWTVLAELDGLQRDPRIGHVVGQAINALVGDEAVTFLPPLADDVAPSPGTIGDDRILGEIASSALESPILITNDRILQLKARVRGIPVEGYRDSVPFQSESQRYTGFVMDGEDPVPNCFRWENGQPVFHGPDGPRAVTWQHEVWKVAPRSVHQNLAFELMLHPGIDIVSIQSEAGYGKTFLALAAALHLVFERKDTPYRKIYLVKPVVEIGARMGFLPGDIEEKMHPYIRYVQDLLLKLHDLRPANRVFQSVEAGNMKLNPKRFEIQPIAYVRGMNLENAVVIIDEMQNLSRNEARALLTRMGEGVKCFCLGDTRQVDNQYLNESNNGLNWVVKKLKGFRNYAHIVLKGERSRGPITDIVLRSRL,not soluble
11,MKNMTALSPSELPRLIDFLEQRNEFAVYAGRVHIHPVTRFCIYWLLLTMTRIREAALMEWSELDGEVWRIPAERKKERRGHDVPLSRAMRWVLDQARGLNVNGRFVFESVNFQGHINKESPHVAMRRSGLDTTAHGLRSLARTYLREVLKVYNDVAEKLLAHSLGLEHHHHHH,not soluble
